The source of these data is US20090291088A1, “THERAPEUTIC COMBINATIONS OF ANTI-IGF-1R ANTIBODIES AND OTHER COMPOUNDS” (Biogen Idec MA Inc., priority 2008, published 2009).

In assay [1] the target is T1, IGF-1R (Homo sapiens, UniProt P08069).
T1 construct: human IGF-1R(1-903)-Fc (denoted hIGF-1R-Fc, generated by Biogen Idec)
The assay can be described thus: Ligand blocking assay (RIA): 125I-IGF-1 / 125I-IGF-2 binding to immobilized IGF-1R. As to conditions: murine monoclonal antibodies. An excerpt:
Ligand blocking assay (RIA). […] Insulin (Arg-Insulin, Cat #01-207) was purchased from Upstate Cell Signaling Solutions (Lake Placid, N.Y. (now part of Millipore, Concord, Mass. (USA)). ^125I-rhIGF-1 (Cat # IM172), ^125I-rhIGF-2 (Cat# IM238) and ^125I-rhInsulin (Cat# IM166) were purchased from Amersham Biosciences (Piscataway, N.J.). AffiPure goat anti-human IgG, Fcγ fragment specific antibodies (Cat #109-005-098, Jackson ImmunoResearch, West Grove, Pa.) was used for IGF-1R-Fc capture. As detection antibody, goat anti-mouse IgG HRP (Cat #1030-05, Southern Biotech Birmingham, Ala.) was used.
Human insulin receptor α-subunit specific antibodies, Clone 83-14, (Cat #AHR0221, Biosource International, Inc., Camarillo, Calif.) and the 47-9 (Cat #E55502M, Biodesign International, Saco, M E) were used as positive controls blocking of insulin-insulin receptor binding experiments. Recombinant IGF-1R-Fc fusion protein was produced at Biogen Idec (Cambridge, Mass.).
As isotype matched mouse negative control antibodies, 2B8 (murine α-CD20.1gG,) and 2B8 mkm.G2a (murine α-CD20 MAb, IgG2a, Biogen Idec, Lot #NB3304-87, San Diego, Calif.) were used. The negative control for Fabs was R001-1B provided by Christilyn Graff (Biogen Idec, Cambridge, Mass.). PBS used in buffers was from BioWhittaker (Cat. # 17-513F, Walkersville, Md.).
Recombinant human IGF-1R (Histidine tagged version) or IGF-1R-Fc was coated onto IMMULON2 HB (high binding) Removawell strips (Dynex Technologies, Inc., cat. #6302) diluted with carbonate coating buffer pH 9.5 to a concentration of 250 ng/well. After overnight incubation at 4° C., the wells were washed three times with washing buffer (0.05% Tween 20/PBS) then blocked with blocking buffer (3% BSA/PBS) for one hour at room temperature. The blocking buffer was removed and the wells washed three more times. Antibody, Fab, or ligand preparations were diluted to desired concentration with dilution buffer (1% BSA/0.05% Tween 20/PBS) and plated at 50 μl per well in duplicate. After 45 minutes at room temperature, 100,000 cpm of either [125I] rhIGF-1 or [125I] rhIGF-2 in 50 μl dilution buffer was added per well. This was incubated at room temperature for one more hour. The wells were washed again three more times and left liquid free after the last wash. The air-dried wells were counted with the Isodata Gamma Counter.
Alternatively, Fabs were evaluated by a modified capture assay, where the IGF-1R-Fc was captured using anti-human IgG immobilized to a plate. Immobilization was carried out by overnight incubation of goat anti-human IgG, Fcγ fragment specific antibody (200 ng/well) in carbonate coating buffer. The wells were washed, blocked and 250 ng of IGF-1R-Fc was added per well.
The ligand blocking ability of the anti-IGF-1R antibody was determined by a solid phase RIA capture method as described in Example 3. […] After 1 hour of incubation at room temperature, the wells were washed and counted for bound radioactivity by a Gamma Counter. An isotype matched negative antibody control, IDEC-151 (human G4), was used. Percent (%) inhibition was calculated as =[1−(Ave.CPM with Ab)/(Ave.CPM with buffer)]×100%.

Assay [2] has as its target T2, IGF-1R phosphorylation (Homo sapiens, UniProt P08069).
T2 construct: wild type IGF-1R expressed on MCF-7 tumor cells; endogenous in cells; host or cells: MCF-7
The assay can be described thus: Inhibition of IGF-1 and IGF-2 mediated IGF-1R phosphorylation in MCF-7 cells (ELISA). It counts as cell-based. As to conditions: murine monoclonal antibodies. As to the method: Cell lines: IGF1R expressing human breast carcinoma cell line MCF-7 (NCI) were maintained at 37° C. and 5% CO2 in MEM eagle (ATCC) containing 10% FBS, 1× non-essential amino acids, 2 mM L-glutamine, 1 mM sodium pyruvate and 1000 U/ml penicillin and streptomycin. Cells were sub-cultured twice weekly for maintenance and assay, and used with a maximum of 12 passages.
MCF-7 cells were plated in 2 ml growth media at 2×10^5 to 4.0×10^5 cells/well in Ploy-D-Lysine coated 12 well plates (BD Biosciences, #35-6470) and cultured at 37° C., 5% CO2. At 48 hours, media removed and cells serum starved overnight at 37° C., 5% CO2 Serum free media was removed and control or test antibodies at indicated concentration were added in 350 ul of fresh serum free media and incubated for 1 hour at room temperature, or alternately at 37° C. Fabs were tested at 200 nM, 20 nM and 2 nM concentration and the mAbs were tested at 67, 6.7 and 0.67 nM. The commercial anti-IGF-1R control antibody used was αIR3 (EMD biosciences, Oncogene Research products, #D27249). […] Ligand was incubated at […] for 37° C. antibody experiments. Cells were lysed in 1× cell lysis buffer (Cell Signal Technologies, #9803) with 1 mM PMSF for 1 hour at room temperature.
Cell lysates were added to ELISA plates pre-coated with IGF-1Rp antibody (Clone 1-2, Biosource International, #AHR0361) and incubated for 2 hours. Following which plates were washed and the plate bound phosphorylated receptor was detected with the biotin labeled anti-phosphotyrosine antibody 4G10 (Catalog #16-103, Upstate Cell Signaling Solutions (Lake Placid, N.Y. (now part of Millipore, Concord, Mass. (USA)) and streptavidin-HRP (BD Pharmingen, #554066). Assay is developed by addition of TMB substrate (Kierkegaard & Perry, #50-76-00) and color stopped by addition of […] (LabChem, Cat#LC25830-1). Optical density is measured at 450 nm using a Molecular Devices plate reader and percent inhibition over the ligand control is calculated for each antibody-ligand sample.
The effect of human anti-IGF-1R antibodies on IGF-1R signaling was evaluated using MCF-7 cells (human breast adenocarcinoma cells).

Assay [3] deals with MCF-7. Briefly: Ki67 inhibition in MCF-7 cells. The format is cell-based, human. As to conditions: breast cancer cell.
Assay [4] relates to NCI-H23. Briefly: IGF driven tumor cell growth, CELL TITER-GLO, H-23. The format is cell-based, human. As to conditions: lung cancer cells. How it is done: (§1) NCI-H23, Calu-6, Colo-205, Panc-1, BxPC-3 (ATCC) tumor lines were purchased from ATCC. Cell lines were grown in complete growth medium containing RPMI-1640 (ATCC), 10% fetal bovine serum (Irvine Scientific Inc.) and 50 μg/ml of Gentamycin (Gibco, Invitrogen). Trypsin-EDTA solution (Sigma) was used for removal of adherent cells from culture vessels. Phosphate buffered saline, pH 7.2, was from MediaTech Inc The 96-well clear bottom plates for luminescent assay was purchased from Wallac Inc.
(§2) Cells grown to 80% monolayers were, trypsinized, washed, resuspended and plated into 96-well plates in 200 μl of 2% growth medium at 8×10^3 cells/well for NCI-H23 and Colo-205 cells; and 5×10^3 cells/well for Calu-6, Panc-1 and BxPC-3 cells. After 24 hours, the culture medium was replaced with 100 μl of serum free medium (SFM), and 50 μl of serially diluted antibodies at 4× concentration was added. […] All treatments were done in triplicates. Cell growth was measured using the CELL TITER-GLO™ Luminescent Cell Viability Assay (Promega, Madison, Wis.). The 1:1 mixture of reagent and SFM was added at 200 μl/well. Luminescence was detected on Wallac (Boston, Mass.) plate reader.
(§3) The ability of the selected murine antibodies to inhibit IGF/IGF-1R dependent in vitro growth of several human tumor lines (Lung, H-23, Calu-6; Pancreas, BxPc-3, Panc-1, MiaPaCa and Colon Colo205) was measured by a proliferation assay described in Example 13.
A commercially available anti-IGF-1R antibody (IR3) was used as a positive control. The mouse IgG (anti-IDectin, IgG1) and human gamma 4 version of IDEC-152 antibody of irrelevant specificity were used as isotype matched controls for the experiments. […]

Assay [5] concerns Calu-6. Briefly: IGF driven tumor cell growth, CELL TITER-GLO, Calu-6. It counts as cell-based, human. As to conditions: lung cancer cells. How it is done: as §1, §2, §3
In general terms: In ATP-based viability assays light output follows the ATP content of the culture.

Assay [6] deals with Panc-1. The assay can be described thus: IGF driven tumor cell growth, CELL TITER-GLO, Panc-1. The settings on record: pancreatic cancer cell. The format is cell-based, human. How it is done: as §1, §2, §3
Assay [7] concerns Colo-205. Briefly: IGF driven tumor cell growth, CELL TITER-GLO, Colo-205. The format is cell-based, human. The settings on record: colon cancer cell. How it is done:
as §1, §2, §3

B1: P1G10.2B8: murine anti-human IGF-1R monoclonal antibody from hybridoma; VH SEQ ID NO:58, VL SEQ ID NO:113 (antibody, V domains shown)
VH: QIQLVQSGPDLKKPGETVKISCKASGYTFTNHGMNWVKQAPGKDLKWMGWINTNTGEPTYADDFKGRFAFSLETSASTAYLQINNLKNEDTATYFCASPLYYRNGRYFDVWGAGTTVTVSS
VL: DIQMTQTTSSLSASLGDRVTISCRASQDISNYLNWYQQKPDGSVKLLIYYTSRLHSGVPSRFSGSGSGTDYSLTISNLEQEDIATYFCQQGKTLPWTFGGGTKLEIK
modifications: Antibody variable heavy chain sequence; Antibody variable light chain sequence
As for B1, the “IGF Blocking IGF-1” value in assay [1] is given as “+++ (>40%@0.1 μg/ml)”. Also, in assay [2], the “Inhibition of IGF-1R.pTyr IGF-1” value was “+++ (>30%@0.1 μg/ml)” and the “Inhibition of IGF-1R.pTyr IGF-2” value was “+++ (>30%@0.1 μg/ml)”. For the same molecule, in assay [3], the “Proliferation of Tumor Cells MCF-7* (Ki67 Inhibit.)” value was “+++ (>50%@0.1 μg/ml)”. Besides, in assay [4], the “Proliferation of Tumor Cells H-23” value is given as “+++ (>30%@0.1 μg/ml)”. Also, in assay [5], the “Proliferation of Tumor Cells Calu-6” value was “++ (>30%@1 μg/ml)”. Also, in assay [6], the “Proliferation of Tumor Cells Panc-1” value is listed as “+ (>30%@10 μg/ml)”. The “Proliferation of Tumor Cells Colo-205” value in assay [7] is “++ (>30%@1 μg/ml)”.

B2: P1E2.3B12: murine anti-human IGF-1R monoclonal antibody from hybridoma; VH SEQ ID NO:63, VL SEQ ID NO:118 (antibody, V domains shown)
VH: QVQLQQPGAELVKPGASVKLSCKASGYTFTSYWMHWVKQRPGQGLEWIGEINPTYGRSNYNEKFKSKATLTVDKSSSTAYMQLSSLTSEDSAVYYCARLVRLRYFDVWGAGTTVTVSS
VL: DIVMTQAAFSNPVTLGTSASISCRSSKSLLHSNGITYLYWYLQKPGQSPQLLIYQMSNLASGVPDRFSSSGSGTDFTLRISRVEAEDVGVYYCAQNLELPYTFGGGTKLEIK
modifications: Antibody variable heavy chain sequence; Antibody variable light chain sequence
Regarding B2, the “IGF Blocking IGF-1” value in assay [1] was “+++ (>40%@0.1 μg/ml)”. Also, in assay [2], the “Inhibition of IGF-1R.pTyr IGF-1” value is “+++ (>30%@0.1 μg/ml)” and the “Inhibition of IGF-1R.pTyr IGF-2” value is recorded as “+++ (>30%@0.1 μg/ml)”. Besides, the “Proliferation of Tumor Cells MCF-7* (Ki67 Inhibit.)” value in assay [3] is reported as “++ (>50%@1 μg/ml)”. The “Proliferation of Tumor Cells H-23” value in assay [4] is on record as “++++ (>30%@0.01 μg/ml)”. Also, the “Proliferation of Tumor Cells Calu-6” value in assay [5] is recorded as “++ (>30%@1 μg/ml)”. Moreover, the “Proliferation of Tumor Cells Panc-1” value in assay [6] is reported as “++ (>30%@1 μg/ml)”. In addition, in assay [7], the “Proliferation of Tumor Cells Colo-205” value was “++ (>30%@1 μg/ml)”.
